For assay [1], the target named is biotinylated MBP-fused HERC2 RLD2 domain (residues 2941-3342) (human) (UniProt O95714). Description: native holdup assay.
For assay [2], the target named is T1, endogenous full-length UBE3A from mouse brain (mouse (endogenous in mouse brain), UniProt O08759 1-870).
T1 sequence (looked up): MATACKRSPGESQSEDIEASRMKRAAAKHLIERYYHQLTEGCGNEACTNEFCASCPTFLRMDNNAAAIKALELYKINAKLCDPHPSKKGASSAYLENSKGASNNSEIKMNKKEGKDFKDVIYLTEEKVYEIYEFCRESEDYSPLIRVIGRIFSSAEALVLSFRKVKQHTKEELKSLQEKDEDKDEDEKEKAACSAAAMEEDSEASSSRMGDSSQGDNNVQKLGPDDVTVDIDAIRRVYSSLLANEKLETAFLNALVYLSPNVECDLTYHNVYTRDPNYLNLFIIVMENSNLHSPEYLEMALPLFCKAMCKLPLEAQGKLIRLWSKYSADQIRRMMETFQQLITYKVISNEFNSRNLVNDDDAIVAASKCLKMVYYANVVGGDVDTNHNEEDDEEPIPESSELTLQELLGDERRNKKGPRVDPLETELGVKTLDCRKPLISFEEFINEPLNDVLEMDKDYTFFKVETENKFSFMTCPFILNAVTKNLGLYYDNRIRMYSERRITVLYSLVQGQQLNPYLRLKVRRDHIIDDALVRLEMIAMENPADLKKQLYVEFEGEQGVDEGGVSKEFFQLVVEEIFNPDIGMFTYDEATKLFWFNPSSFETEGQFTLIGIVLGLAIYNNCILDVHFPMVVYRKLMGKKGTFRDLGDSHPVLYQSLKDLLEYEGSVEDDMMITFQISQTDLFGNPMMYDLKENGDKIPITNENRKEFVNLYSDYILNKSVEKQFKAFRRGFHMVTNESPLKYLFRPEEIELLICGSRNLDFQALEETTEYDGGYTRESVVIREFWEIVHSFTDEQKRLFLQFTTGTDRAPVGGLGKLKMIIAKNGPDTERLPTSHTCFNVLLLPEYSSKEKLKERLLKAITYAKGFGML
In words: native holdup assay.

Assay [3] deals with endogenous full-length DOCK10 (human (endogenous in SH-SY5Y), UniProt Q96BY6 1-2186). In words: native holdup assay.
Assay [4] has as its target endogenous full-length PCM1 (human (endogenous in SH-SY5Y), UniProt Q15154 1-2024). Description: native holdup assay.
For assay [5], the target named is T2, endogenous full-length ARID4A (human (endogenous in SH-SY5Y), UniProt P29374 1-1257).
T2 sequence (looked up): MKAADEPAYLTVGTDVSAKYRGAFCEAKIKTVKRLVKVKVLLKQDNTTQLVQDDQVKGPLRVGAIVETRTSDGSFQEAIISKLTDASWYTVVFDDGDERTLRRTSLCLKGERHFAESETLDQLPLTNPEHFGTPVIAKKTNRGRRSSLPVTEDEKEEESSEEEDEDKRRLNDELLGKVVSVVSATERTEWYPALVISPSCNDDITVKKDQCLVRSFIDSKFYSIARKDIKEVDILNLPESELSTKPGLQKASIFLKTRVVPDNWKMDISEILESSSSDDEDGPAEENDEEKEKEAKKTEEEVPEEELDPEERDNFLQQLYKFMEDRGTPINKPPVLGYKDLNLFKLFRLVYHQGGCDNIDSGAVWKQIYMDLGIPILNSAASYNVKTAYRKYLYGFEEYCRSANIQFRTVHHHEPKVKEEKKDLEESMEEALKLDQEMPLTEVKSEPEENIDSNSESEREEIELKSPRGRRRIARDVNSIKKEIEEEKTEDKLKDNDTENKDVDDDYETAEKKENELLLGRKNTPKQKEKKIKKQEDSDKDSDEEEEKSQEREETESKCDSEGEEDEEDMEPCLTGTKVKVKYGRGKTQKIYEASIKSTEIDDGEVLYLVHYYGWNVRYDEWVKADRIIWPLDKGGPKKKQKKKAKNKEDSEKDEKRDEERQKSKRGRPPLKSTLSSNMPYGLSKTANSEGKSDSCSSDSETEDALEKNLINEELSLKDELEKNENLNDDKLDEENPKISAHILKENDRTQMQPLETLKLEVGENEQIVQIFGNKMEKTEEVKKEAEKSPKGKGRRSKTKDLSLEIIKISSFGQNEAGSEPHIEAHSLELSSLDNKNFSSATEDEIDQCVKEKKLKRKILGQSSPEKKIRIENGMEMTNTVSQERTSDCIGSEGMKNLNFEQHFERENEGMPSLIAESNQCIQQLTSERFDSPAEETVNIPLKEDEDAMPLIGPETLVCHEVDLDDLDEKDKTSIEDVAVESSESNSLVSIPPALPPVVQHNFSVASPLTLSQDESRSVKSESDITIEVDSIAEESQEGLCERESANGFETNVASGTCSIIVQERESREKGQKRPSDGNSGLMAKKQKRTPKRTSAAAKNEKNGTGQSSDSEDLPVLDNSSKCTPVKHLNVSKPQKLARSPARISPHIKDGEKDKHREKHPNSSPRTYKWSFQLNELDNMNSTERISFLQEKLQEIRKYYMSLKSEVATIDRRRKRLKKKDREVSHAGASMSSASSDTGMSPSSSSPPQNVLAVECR
Description: native holdup assay.

Assay [6] has as its target endogenous full-length UBE3A from SH-SY5Y cells (human (endogenous in SH-SY5Y), UniProt Q05086 1-875). In words: native holdup assay.
For assay [7], the target named is T3, endogenous full-length HERC2 (human (endogenous in SH-SY5Y), UniProt O95714 1-4834). In words: native holdup assay.
T3 sequence (O95714 whole entry, the tested form may be a part): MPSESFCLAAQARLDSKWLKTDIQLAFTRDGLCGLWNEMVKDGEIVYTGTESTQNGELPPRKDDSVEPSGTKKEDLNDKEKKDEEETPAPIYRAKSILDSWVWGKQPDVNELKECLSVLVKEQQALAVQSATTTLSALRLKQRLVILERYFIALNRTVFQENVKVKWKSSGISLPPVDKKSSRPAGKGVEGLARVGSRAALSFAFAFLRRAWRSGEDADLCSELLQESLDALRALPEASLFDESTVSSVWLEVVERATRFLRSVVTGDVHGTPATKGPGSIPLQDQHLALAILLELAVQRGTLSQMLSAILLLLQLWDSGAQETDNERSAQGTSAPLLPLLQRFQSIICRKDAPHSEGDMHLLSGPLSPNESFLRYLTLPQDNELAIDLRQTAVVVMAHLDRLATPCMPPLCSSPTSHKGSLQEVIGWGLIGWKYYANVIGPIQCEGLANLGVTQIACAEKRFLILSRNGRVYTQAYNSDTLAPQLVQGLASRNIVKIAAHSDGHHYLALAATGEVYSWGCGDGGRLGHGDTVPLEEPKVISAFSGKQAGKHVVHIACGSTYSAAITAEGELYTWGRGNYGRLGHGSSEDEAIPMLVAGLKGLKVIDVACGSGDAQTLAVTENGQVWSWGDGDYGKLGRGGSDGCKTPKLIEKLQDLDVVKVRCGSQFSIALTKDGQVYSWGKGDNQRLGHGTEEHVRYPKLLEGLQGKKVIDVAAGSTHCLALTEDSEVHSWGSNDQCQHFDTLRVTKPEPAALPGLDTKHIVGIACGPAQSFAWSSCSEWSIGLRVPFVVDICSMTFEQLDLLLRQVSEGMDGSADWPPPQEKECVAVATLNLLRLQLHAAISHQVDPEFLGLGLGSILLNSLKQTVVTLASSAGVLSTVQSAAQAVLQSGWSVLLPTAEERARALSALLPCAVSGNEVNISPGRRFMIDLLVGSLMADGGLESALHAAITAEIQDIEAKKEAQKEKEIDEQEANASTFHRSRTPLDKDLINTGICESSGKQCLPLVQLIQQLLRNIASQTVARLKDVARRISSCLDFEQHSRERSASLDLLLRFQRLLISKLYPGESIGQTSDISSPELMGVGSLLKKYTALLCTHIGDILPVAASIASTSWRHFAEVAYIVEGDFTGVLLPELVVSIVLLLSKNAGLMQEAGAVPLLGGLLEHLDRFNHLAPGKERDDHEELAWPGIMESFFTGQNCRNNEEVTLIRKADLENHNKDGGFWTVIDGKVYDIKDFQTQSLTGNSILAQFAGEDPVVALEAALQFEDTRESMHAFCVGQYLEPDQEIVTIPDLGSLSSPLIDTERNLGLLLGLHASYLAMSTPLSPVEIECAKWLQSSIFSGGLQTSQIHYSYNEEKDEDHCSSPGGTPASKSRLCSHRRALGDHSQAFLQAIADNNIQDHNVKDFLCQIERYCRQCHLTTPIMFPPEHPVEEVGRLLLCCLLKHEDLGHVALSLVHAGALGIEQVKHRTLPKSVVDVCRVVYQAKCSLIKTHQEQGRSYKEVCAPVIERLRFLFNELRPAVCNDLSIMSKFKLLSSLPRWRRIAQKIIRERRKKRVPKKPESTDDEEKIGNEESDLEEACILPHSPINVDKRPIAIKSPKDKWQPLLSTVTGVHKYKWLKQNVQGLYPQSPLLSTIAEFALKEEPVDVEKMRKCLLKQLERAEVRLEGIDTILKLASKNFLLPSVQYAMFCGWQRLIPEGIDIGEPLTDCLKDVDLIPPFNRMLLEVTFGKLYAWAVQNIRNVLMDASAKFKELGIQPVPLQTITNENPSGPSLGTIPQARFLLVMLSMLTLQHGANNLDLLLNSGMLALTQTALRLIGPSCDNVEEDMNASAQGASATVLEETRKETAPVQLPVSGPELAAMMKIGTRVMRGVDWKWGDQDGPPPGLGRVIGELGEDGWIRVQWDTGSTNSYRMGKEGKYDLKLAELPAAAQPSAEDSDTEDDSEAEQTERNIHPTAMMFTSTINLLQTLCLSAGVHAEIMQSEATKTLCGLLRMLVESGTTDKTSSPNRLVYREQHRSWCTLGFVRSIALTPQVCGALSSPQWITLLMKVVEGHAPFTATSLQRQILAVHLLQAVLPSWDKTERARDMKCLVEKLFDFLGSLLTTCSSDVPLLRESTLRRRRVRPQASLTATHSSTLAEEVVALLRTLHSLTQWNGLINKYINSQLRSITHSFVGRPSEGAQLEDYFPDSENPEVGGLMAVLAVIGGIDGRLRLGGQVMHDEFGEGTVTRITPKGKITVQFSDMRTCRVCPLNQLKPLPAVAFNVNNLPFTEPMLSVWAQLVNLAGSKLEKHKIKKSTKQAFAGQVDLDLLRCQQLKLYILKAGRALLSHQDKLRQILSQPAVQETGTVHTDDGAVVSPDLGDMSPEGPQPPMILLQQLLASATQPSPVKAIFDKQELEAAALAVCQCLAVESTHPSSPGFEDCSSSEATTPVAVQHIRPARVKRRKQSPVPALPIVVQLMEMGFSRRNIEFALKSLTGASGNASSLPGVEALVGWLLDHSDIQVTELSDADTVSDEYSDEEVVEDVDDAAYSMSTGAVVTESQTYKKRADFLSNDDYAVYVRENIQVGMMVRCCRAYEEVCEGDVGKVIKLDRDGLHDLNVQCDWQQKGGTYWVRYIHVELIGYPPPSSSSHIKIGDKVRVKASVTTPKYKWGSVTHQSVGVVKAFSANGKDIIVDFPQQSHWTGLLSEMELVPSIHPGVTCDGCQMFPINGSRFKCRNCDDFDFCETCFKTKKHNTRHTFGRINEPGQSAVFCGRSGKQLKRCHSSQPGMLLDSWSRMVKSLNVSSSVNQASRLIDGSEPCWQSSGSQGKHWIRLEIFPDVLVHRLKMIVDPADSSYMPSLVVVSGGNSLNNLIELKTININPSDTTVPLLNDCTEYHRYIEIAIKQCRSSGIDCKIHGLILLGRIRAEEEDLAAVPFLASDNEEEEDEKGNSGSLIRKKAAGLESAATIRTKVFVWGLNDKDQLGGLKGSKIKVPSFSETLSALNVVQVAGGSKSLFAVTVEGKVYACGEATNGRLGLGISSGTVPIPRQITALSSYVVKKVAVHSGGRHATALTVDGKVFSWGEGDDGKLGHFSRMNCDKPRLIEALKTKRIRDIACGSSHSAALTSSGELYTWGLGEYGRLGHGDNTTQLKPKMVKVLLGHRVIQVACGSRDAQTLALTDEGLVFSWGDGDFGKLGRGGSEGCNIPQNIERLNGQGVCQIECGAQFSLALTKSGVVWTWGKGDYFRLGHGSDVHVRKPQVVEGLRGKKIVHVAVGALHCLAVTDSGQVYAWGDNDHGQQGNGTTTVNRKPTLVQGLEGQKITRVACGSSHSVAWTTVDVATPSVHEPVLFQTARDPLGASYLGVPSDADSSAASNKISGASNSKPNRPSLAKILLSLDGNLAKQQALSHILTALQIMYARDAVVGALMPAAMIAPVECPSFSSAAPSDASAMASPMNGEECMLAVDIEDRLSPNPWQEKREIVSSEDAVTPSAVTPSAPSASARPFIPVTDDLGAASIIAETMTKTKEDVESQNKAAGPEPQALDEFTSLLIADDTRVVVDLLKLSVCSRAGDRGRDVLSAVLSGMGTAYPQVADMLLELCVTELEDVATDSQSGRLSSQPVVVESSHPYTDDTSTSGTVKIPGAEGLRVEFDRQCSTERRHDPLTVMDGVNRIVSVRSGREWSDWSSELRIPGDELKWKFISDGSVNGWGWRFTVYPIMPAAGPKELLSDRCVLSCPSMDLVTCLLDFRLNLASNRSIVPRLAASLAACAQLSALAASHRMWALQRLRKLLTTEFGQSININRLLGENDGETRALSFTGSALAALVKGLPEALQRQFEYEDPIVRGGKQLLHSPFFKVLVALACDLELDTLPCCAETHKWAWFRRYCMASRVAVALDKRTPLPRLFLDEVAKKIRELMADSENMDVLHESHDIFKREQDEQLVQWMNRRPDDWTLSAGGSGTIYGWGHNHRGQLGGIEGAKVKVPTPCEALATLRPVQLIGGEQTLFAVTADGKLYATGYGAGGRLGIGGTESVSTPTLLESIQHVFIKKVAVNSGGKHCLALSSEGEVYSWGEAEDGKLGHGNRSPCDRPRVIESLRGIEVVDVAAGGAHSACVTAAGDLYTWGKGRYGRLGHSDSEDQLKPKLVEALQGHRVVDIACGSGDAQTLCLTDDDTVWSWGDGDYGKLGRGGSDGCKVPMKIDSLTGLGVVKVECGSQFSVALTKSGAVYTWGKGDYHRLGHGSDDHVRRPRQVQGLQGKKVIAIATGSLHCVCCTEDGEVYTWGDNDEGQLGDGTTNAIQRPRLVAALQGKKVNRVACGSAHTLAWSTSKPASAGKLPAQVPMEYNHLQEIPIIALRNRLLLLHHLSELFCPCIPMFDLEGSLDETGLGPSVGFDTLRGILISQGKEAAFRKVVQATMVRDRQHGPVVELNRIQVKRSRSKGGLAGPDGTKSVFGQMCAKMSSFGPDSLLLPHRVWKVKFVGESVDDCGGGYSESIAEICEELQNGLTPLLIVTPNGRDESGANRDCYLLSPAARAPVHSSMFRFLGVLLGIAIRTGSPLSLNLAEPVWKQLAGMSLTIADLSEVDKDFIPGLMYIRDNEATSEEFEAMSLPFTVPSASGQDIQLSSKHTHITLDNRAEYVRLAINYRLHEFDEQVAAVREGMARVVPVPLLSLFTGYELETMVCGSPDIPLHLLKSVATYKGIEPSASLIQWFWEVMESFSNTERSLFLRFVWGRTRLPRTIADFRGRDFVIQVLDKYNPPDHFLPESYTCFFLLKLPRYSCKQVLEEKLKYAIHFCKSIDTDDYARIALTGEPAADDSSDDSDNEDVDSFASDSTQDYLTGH
Assay [8] addresses T4, HERC2 RLD2 domain (residues 2941-3342), untagged (human, UniProt O95714 2941-3342).
T4 sequence (looked up): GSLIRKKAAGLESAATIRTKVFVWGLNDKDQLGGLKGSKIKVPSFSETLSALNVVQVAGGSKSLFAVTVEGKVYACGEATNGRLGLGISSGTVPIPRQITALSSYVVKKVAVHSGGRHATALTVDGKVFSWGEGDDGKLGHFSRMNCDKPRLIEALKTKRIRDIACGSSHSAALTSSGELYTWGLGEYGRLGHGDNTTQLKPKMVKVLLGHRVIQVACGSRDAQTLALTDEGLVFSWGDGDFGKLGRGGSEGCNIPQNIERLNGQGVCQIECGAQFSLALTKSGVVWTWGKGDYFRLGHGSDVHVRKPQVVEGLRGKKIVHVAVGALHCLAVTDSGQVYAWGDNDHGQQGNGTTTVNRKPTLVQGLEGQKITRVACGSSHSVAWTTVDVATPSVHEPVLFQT
Description: fluorescence polarisation.

The target in assay [9] is T3, endogenous full-length HERC2. Description: native holdup assay. The source holds these as a separate data set.

Values joined by “and” are separate entries in the source; they are usually repeats but may differ in a detail not shown here. Identical values can stand only once. Like-named read-outs stand apart in the source and are kept apart here. No end group written: not given here. fluorescein = fluorescein (N-terminal fluorescent label on the UBE3A peptide)

The Kd is the concentration at which binding is half-saturated. With “endogenous full-length UBE3A from zebrafish embryos (enzyme)”, in assay [1], the Kd came out at 100 nM.

“endogenous full-length MYT1 (from UniProt Q01538 1-1121) (natural protein)”: the Kd in assay [1] was more than 10000 nM.

B1: biotinylated MBP-fused HERC2 RLD2 domain (residues 2941-3342) (domain or fragment, human, UniProt O95714 2941-3342, looked up)
chain: T4 sequence (looked up)
modifications: biotin on the AviTag (in vivo biotinylation)
Take B1: the Kd in assay [2] was approximately 100 nM; in assay [3] it was 2600 ± 500 nM; in assay [4], 260 ± 40 nM; in [5], less than 100 nM; in assay [6], < 100 nM and ~100 nM.

HTKEELKSLQAKDEDKDEDEKEKAA (also: biotin, position not given here) [biotinylated UBE3A peptide containing amino acids 150-174] came in with a Kd in assay [7] of 340 ± 90 nM.

HTKEELKSLQAKDEDKDEDEKEKAA [non-labeled UBE3A peptide residues 150-174]: the Kd in assay [8] was less than 100 nM.

B2: biotinylated full-length MBP-fused UBE3A protein (enzyme, human, UniProt Q05086-2 1-852, looked up)
chain: MKRAAAKHLIERYYHQLTEGCGNEACTNEFCASCPTFLRMDNNAAAIKALELYKINAKLCDPHPSKKGASSAYLENSKGAPNNSCSEIKMNKKGARIDFKDVTYLTEEKVYEILELCREREDYSPLIRVIGRVFSSAEALVQSFRKVKQHTKEELKSLQAKDEDKDEDEKEKAACSAAAMEEDSEASSSRIGDSSQGDNNLQKLGPDDVSVDIDAIRRVYTRLLSNEKIETAFLNALVYLSPNVECDLTYHNVYSRDPNYLNLFIIVMENRNLHSPEYLEMALPLFCKAMSKLPLAAQGKLIRLWSKYNADQIRRMMETFQQLITYKVISNEFNSRNLVNDDDAIVAASKCLKMVYYANVVGGEVDTNHNEEDDEEPIPESSELTLQELLGEERRNKKGPRVDPLETELGVKTLDCRKPLIPFEEFINEPLNEVLEMDKDYTFFKVETENKFSFMTCPFILNAVTKNLGLYYDNRIRMYSERRITVLYSLVQGQQLNPYLRLKVRRDHIIDDALVRLEMIAMENPADLKKQLYVEFEGEQGVDEGGVSKEFFQLVVEEIFNPDIGMFTYDESTKLFWFNPSSFETEGQFTLIGIVLGLAIYNNCILDVHFPMVVYRKLMGKKGTFRDLGDSHPVLYQSLKDLLEYEGNVEDDMMITFQISQTDLFGNPMMYDLKENGDKIPITNENRKEFVNLYSDYILNKSVEKQFKAFRRGFHMVTNESPLKYLFRPEEIELLICGSRNLDFQALEETTEYDGGYTRDSVLIREFWEIVHSFTDEQKRLFLQFTTGTDRAPVGGLGKLKMIIAKNGPDTERLPTSHTCFNVLLLPEYSSKEKLKERLLKAITYAKGFGML
modifications: biotin on the AviTag (in vivo biotinylation)
In assay [9], B2 displayed a Kd of 560 ± 150 nM.

B3: UBE3A peptide residues 150-200 (peptide, UniProt Q05086-2 150-200, looked up)
peptide: HTKEELKSLQAKDEDKDEDEKEKAACSAAAMEEDSEASSSRIGDSSQGDNN
With B3, the binding result in [8] is “binds”.

With AKDEDKDEDEKEKAA (peptide, UniProt Q05086-2 160-174, looked up) [UBE3A peptide residues 160-174], in assay [8], the Kd was found to be 6850 ± 290 nM.

For the molecule fluorescein-SLQAKDEDKDEDEKEKAA [UBE3A 18-aa linked to fluorescein], in assay [8], the binding result is listed as “binds”.

Values taken from paper doi:10.1101/2025.09.16.670041 (bioRxiv, 2025).
